The source of these data is paper PMC9335043, “The novel ZmTCP7 transcription factor targets AGPase-encoding gene ZmBt2 to regulate storage starch accumulation in maize”.

Series [1] has as its target T1, GST-ZmTCP7 (Zea mays, UniProt B4FHV6 1-275).
T1 sequence: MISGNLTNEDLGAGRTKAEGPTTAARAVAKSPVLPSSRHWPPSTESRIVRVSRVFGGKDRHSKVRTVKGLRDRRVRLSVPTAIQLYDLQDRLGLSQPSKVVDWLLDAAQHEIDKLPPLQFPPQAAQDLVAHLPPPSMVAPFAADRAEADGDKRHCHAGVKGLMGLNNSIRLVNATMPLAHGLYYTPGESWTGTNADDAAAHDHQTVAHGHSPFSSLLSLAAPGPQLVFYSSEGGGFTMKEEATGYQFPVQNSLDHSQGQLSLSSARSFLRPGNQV
Nature of the series: competition; unlabeled competitor vs PWT: considerably reduced at 50x, almost completely removed at 100x; LightShift chemiluminescent EMSA kit buffer (composition and pH not stated), 25 C, 30 min, 8% PAGE. Conditions: protein: recombinant; tags: N-terminal GST (pGEX-6-1); chain copies: 2.

The target in series [2] is T1, GST-ZmTCP7. Put plainly: EMSA; LightShift chemiluminescent EMSA kit buffer (composition and pH not stated), 25 C, 30 min, 8% PAGE. Conditions: protein: recombinant; tags: N-terminal GST (pGEX-6-1); chain copies: 2; label: 3' biotin. In general terms: In EMSA bound probe runs differently from free probe, usually more slowly.

B1: unlabeled WT 30 bp competitor (dsDNA)
DNA 1: CACACTTTAGAACCCCACGCCTTTACCTAA
DNA 2: TTAGGTAAAGGCGTGGGGTTCTAAAGTGTG
Regarding B1, in the series with GST-ZmTCP7 [1], the binding result is given as “binds”.

B2: PMu (mutated ZmBt2 promoter 30 bp probe) (dsDNA)
DNA 1: CACACTTTAGAAAAAACAGCCTTTACCTAA
DNA 2: TTAGGTAAAGGCTGTTTTTTCTAAAGTGTG
For the molecule B2, in the series with GST-ZmTCP7 [2], the binding result is on record as “no binding”.

B3: PWT (ZmBt2 promoter 30 bp probe) (dsDNA)
DNA 1: B1 DNA 1
DNA 2: B1 DNA 2
With B3, in the series with GST-ZmTCP7 [2], the binding result was “binds”.
